Among the data in article PMC9599842 (2022) are koff values, retold here.

One experiment deals with HcAb.RR359.D107A. The experiment can be described thus: BLI. Background: Biolayer interferometry detects binding as a change in optical thickness at a sensor tip.
A further experiment deals with HcAb.RR359.L110A. In words: BLI.

B1: mEGFR-His recombinant protein (receptor)
chain: LEEKKVCQGTSNRLTQLGTFEDHFLSLQRMYNNCEVVLGNLEITYVQRNYDLSFLKTIQEVAGYVLIALNTVERIPLENLQIIRGNALYENTYALAILSNYGTNRTGLRELPMRNLQEILIGAVRFSNNPILCNMDTIQWRDIVQNVFMSNMSMDLQSHPSSCPKCDPSCPNGSCWGGGEENCQKLTKIICAQQCSHRCRGRSPSDCCHNQCAAGCTGPRESDCLVCQKFQDEATCKDTCPPLMLYNPTTYQMDVNPEGKYSFGATCVKKCPRNYVVTDHGSCVRACGPDYYEVEEDGIRKCKKCDGPCRKVCNGIGIGEFKDTLSINATNIKHFKYCTAISGDLHILPVAFKGDSFTRTPPLDPRELEILKTVKEITGFLLIQAWPDNWTDLHAFENLEIIRGRTKQHGQFSLAVVGLNITSLGLRSLKEISDGDVIISGNRNLCYANTINWKKLFGTPNQKTKIMNNRAEKDCKAVNHVCNPLCSSEGCWGPEPRDCVSCQNVSRGRECVEKCNILEGEPREFVENSECIQCHPECLPQAMNITCTGRGPDNCIQCAHYIDGPHCVKTCPAGIMGENNTLVWKYADANNVCHLCHANCTYGCAGPGLQGCEVWPSGPKIPS
The koff is the rate constant with which the complex falls apart. A higher koff goes with a short-lived complex. Take B1: the koff came out at 0.00135 s⁻¹ with HcAb.RR359.D107A and 0.00425 s⁻¹ in the experiment with HcAb.RR359.L110A.
